Laboratory results: patent US20150266967A1 (Boehringer Ingelheim, published 2015)
Values belong to the binder of their own block, whether it stands above or below them.

How the values were obtained:
[1] = biological target: T1, recombinant Fcγ-receptor 3a protein, low affinity F158 allotype (UniProt P08637 17-208); experiment: surface plasmon resonance, KD from ka and kd; B2, F158 allotype
T1 construct: F158 allotype; also called Fcγ-receptor 3a F158; FC gamma receptor 3a

[2] = biological target: T2, recombinant Fcγ-receptor 3a protein, high affinity V158 allotype (UniProt P08637 17-208); experiment: surface plasmon resonance, KD compared with reference antibody
T2 construct: also called Fcγ-receptor 3a V158; FC gamma receptor 3a
T2 sequence (P08637 17-208 F176V): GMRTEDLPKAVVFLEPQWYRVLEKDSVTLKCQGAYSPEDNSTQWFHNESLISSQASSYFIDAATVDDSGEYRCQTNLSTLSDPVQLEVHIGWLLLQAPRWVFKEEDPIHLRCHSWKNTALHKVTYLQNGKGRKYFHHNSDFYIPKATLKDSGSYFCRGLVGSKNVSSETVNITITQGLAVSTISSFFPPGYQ

[3] = biological target: T2, recombinant Fcγ-receptor 3a protein, …; experiment: surface plasmon resonance, KD from ka and kd
[4] = biological target: T1, recombinant Fcγ-receptor 3a protein, …; experiment: surface plasmon resonance, KD from ka and kd; A2, F158 allotype

T1 sequence (P08637 17-208 limits assumed): as the sequence (P08637 17-208 F176V) above, with V160F counted along it

Kd [1]: 21.1 nM
fold increased binding against the non Fc-engineered IgG1 reference antibody [2]: ~40 fold
Kd [3]: 9.3 nM
B1: CD37 antibody B2 (antibody, human IgG1, kappa)
heavy: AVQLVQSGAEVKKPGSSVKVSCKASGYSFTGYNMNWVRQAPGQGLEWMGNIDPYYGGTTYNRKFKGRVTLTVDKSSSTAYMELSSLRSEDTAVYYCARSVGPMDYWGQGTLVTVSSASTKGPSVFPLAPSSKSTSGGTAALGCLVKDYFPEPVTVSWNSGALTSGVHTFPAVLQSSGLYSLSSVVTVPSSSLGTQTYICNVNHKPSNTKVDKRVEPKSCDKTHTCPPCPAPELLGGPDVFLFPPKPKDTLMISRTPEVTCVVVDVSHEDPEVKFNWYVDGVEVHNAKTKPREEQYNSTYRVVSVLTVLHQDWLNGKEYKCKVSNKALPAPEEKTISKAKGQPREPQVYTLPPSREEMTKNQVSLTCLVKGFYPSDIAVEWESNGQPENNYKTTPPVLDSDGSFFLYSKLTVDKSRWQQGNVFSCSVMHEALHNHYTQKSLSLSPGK
light: DIQMTQSPSSLSASVGDRVTITCRTSENVYSYLAWYQQKPGKAPKLLVSFAKTLAEGVPSRFSGSGSGTDFTLTISSLQPEDFATYFCQHHSDNPWTFGQGTKVEIKRTVAAPSVFIFPPSDEQLKSGTASVVCLLNNFYPREAKVQWKVDNALQSGNSQESVTEQDSKDSTYSLSSTLTLSKADYEKHKVYACEVTHQGLSSPVTKSFNRGEC
notes: Fc-engineered CD37 antibody; copies: 2 + 2

Kd [4]: 17.5 nM
fold increased binding against the non Fc-engineered IgG1 reference antibody [2]: ~40 fold
Kd [3]: 8.8 nM
B2: CD37 antibody A2 (antibody, human IgG1, kappa)
heavy: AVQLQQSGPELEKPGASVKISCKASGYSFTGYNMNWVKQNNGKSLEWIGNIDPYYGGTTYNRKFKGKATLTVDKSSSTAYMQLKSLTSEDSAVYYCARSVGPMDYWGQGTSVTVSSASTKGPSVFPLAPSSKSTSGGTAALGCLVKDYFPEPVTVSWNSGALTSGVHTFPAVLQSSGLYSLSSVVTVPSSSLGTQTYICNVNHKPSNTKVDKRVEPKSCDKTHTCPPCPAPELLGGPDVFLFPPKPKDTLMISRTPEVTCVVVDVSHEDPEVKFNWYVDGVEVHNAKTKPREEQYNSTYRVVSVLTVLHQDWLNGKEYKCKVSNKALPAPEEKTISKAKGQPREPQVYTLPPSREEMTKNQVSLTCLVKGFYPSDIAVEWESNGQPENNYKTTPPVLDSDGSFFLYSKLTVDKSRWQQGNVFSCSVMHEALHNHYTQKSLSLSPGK
light: DIQMTQSPASLSASVGETVTITCRTSENVYSYLAWYQQKQGKSPQLLVSFAKTLAEGVPSRFSGSGSGTQFSLKISSLQPEDSGSYFCQHHSDNPWTFGGGTELEIKRTVAAPSVFIFPPSDEQLKSGTASVVCLLNNFYPREAKVQWKVDNALQSGNSQESVTEQDSKDSTYSLSSTLTLSKADYEKHKVYACEVTHQGLSSPVTKSFNRGEC
notes: as for B1
